In assay [1] the target is SARS-CoV-2 receptor binding domain (RBD) (SARS-CoV-2) (UniProt P0DTC2). Kind of assay: ELISA.
Assay [2] addresses SARS-CoV-2 spike S1 (SARS-CoV-2) (UniProt P0DTC2). Kind of assay: ELISA.
A further assay addresses HCoV-NL63 S1 (HCoV-NL63) (UniProt Q6Q1S2). Kind of assay: ELISA. A general note: In an ELISA, binding on a coated surface is turned into a signal by an enzyme label.
The target in assay [3] is SARS-CoV-2 receptor binding domain (RBD) (SARS-CoV-2) (UniProt P0DTC2). Kind of assay: ELISA. The source holds these as a separate data set.
A further assay concerns the target SARS CoV RBD (SARS-CoV) (UniProt P59594). Kind of assay: ELISA.
A further assay concerns the target MERS CoV S1 (MERS CoV) (UniProt K9N5Q8). Kind of assay: ELISA.
The next assay deals with HCoV-229E S1 (HCoV-229E) (UniProt P15423). The assay is described as follows: ELISA.
Assay [4] deals with SARS-CoV-2 receptor binding domain (RBD) (SARS-CoV-2) (UniProt P0DTC2). Kind of assay: RBD:ACE2 blocking ELISA (RBD coated, ACE2-His).
Assay [5] deals with SARS-CoV-2 spike on GFP reporter pseudotype virus (Wuhan-Hu-1) (SARS-CoV-2) (UniProt P0DTC2). The assay is described as follows: cell-based or functional assay.

Like-named read-outs stand apart in the source and are kept apart here.

Consider IVIG (Gamunex; Grifols) (antibody), for which the EC50 in [1] worked out at 1250 µg/mL; in assay [2], 1410 µg/mL; in the assay with HCoV-NL63 S1 (HCoV-NL63), 140 µg/mL; in [3], 1270 µg/mL; with SARS CoV RBD (SARS-CoV), 1280 µg/mL; with MERS CoV S1 (MERS CoV), 1330 µg/mL. The substance also came in with a concentration giving a half-maximal response (EC50) with HCoV-229E S1 (HCoV-229E) of 96 µg/mL. The figures for the peak OD signal in assay [2] and in assay [3] were 1.99 OD and 2.26 OD, respectively.
“rCIG (recombinant coronavirus-2 immune globulin; recombinant anti-coronavirus 19 hyperimmune gammaglobulin) (antibody)”: the IC50 in assay [4] amounted to 2.2 µg/mL. Further, the CoV-2 pseudotype neutralization IC50 in assay [5] was determined as 0.43 µg/mL. The concentration giving a half-maximal response (EC50) in assay [2] turned out to be 0.092 µg/mL; in assay [3] it was 0.1 µg/mL; with SARS CoV RBD (SARS-CoV), 0.6 µg/mL.

What is called EC50 is the midpoint of the concentration-response curve. Low values mean an effect from little substance, high ones a need for much substance. The term IC50 denotes the concentration needed to halve the response being measured.

For the origin of these results see US20220041715A1.
